In patent US20140170149A1:

Key:
[1] = target: hu-HER2-ch(III) (human; chicken (Gallus gallus)) (UniProt P04626); assay: flow cytometry on CHO-S cells transiently transfected with hu-HER2-ch(III), PE-goat anti-human IgG, MFI (Example 24)
[2] = target: hu-HER2-ch(I) (chicken (Gallus gallus); human) (UniProt P04626); assay: flow cytometry on CHO-S cells transiently transfected with hu-HER2-ch(I), PE-goat anti-human IgG, MFI (Example 24)
[3] = target: hu-HER2-ch(IV) (human; chicken (Gallus gallus)) (UniProt P04626); assay: flow cytometry on CHO-S cells transiently transfected with hu-HER2-ch(IV), PE-goat anti-human IgG, MFI (Example 24)

B1: HER2 HuMab 153 (antibody, V domains shown)
VH: QVQLVESGGGVVQPGRSLRLSCAASGFTFSDYVIHWVRQAPGKGLEWVTVISYDGSNKYYADSVKGRFTISRDNSKNTLYLQMNSLSAEDTAMYYCARGGITGTTGVFDYWGQGTLVTVSS
VL: DIQMTQSPSSLSASVGDRVTITCRASQGISSWLAWYQQKPEKAPKSLIYDASSLQSGVPSRFSGSGYGTDFSLTISSLQPEDFAIYYCQQYKSYPITFGQGTRLEIK
EC50 (read off the curve) [1]: 0.03 µg/mL
EC50 (read off the curve) [2]: 0.05 µg/mL
EC50 (read off the curve) [3]: 0.04 µg/mL
